These results are taken from paper PMC12884772, “Macrophagic Sclerostin Loop2‐ApoER2 Interaction Required by Sclerostin for Cardiovascular Protective Action” (Advanced Science, 2025).

One test addresses His-sclerostin loop2. Kind of test: BLI; Octet RED96e; Figure 6B, 'ApoER2 to sclerostin' and 'to sclerostin loop2'; the methods tell of biotin-ApoER2 loaded on streptavidin biosensors, PBS with 0.02% Tween 20; partner loaded in this panel not given. In general terms: Biolayer interferometry detects binding as a change in optical thickness at a sensor tip.
Test [1] deals with full-length His-sclerostin (not stated (recombinant human and mouse sclerostin used in the paper)) (UniProt Q99P68). Described as above.
The target in test [2] is ApoER2 protein (R&D, 3520-AR) (UniProt Q14114). Kind of test: BLI; Octet RED96e; Figure S6B, 'sclerostin to ApoER2'; partner loaded in this panel not given.
ApoER2 protein (R&D, 3520-AR), sequence (Q14114 42-826): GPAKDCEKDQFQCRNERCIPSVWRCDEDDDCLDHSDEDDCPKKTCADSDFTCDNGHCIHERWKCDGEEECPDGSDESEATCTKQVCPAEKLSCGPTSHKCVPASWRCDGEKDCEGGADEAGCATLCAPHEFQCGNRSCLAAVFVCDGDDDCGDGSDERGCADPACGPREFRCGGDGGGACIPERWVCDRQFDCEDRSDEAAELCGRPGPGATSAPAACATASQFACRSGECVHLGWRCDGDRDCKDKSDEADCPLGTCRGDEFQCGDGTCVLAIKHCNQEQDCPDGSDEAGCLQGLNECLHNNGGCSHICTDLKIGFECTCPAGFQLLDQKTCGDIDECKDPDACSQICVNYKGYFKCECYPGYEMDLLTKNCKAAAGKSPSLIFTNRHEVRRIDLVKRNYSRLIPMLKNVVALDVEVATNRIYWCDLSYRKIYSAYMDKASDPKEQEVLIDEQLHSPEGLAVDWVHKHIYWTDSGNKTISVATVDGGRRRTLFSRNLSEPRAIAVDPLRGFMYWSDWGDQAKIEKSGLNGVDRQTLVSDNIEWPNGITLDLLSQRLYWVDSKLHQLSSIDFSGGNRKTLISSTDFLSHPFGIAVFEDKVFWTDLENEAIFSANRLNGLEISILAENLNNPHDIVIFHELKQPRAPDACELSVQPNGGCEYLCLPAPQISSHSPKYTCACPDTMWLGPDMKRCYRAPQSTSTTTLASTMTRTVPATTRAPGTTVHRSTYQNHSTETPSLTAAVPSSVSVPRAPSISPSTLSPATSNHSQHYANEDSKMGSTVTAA

full-length His-sclerostin (not stated (recombinant human and mouse sclerostin used in the paper)), sequence (Q99P68 24-211): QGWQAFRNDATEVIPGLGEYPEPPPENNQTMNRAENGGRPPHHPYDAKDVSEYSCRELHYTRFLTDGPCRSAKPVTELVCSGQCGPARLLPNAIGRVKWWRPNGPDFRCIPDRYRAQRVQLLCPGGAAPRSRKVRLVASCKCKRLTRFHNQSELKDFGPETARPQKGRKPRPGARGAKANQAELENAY
full-length His-sclerostin, sequence (Q99P68 24-211): as above

One may read the Kd as the constant that tells how readily two partners part at equilibrium. Regarding “ApoER2 protein (R&D, 3520-AR) (from UniProt Q14114 42-826) (receptor)”, the Kd with His-sclerostin loop2 amounted to 23 nM; in test [1] it was 3.8 nM.
Turning to “full-length His-sclerostin (from UniProt Q99P68 24-211) (natural protein)”, the Kd in test [2] amounted to 2.1 nM.
